Here are results for 1 substance from paper PMC3542269.

The target in this test is clathrin (human (endogenous in PC-3)) (UniProt Q00610). Put plainly: co-IP; PC-3 lysate (50 mM HEPES pH 5.5, 1 mM EDTA, 150 mM NaCl, 1% Triton X-100); anti-clathrin (1 µg) or anti β-actin (5 µg) antibody overnight at 4°C, Protein A Sepharose; profilin 1 detected by Western blot; cells treated 24 h with 10 µM AMS-36 (cathepsin X inhibitor) or DMSO. For orientation: Immunoblotting shows a protein as a band on a membrane.
Sequence of UniProt Q00610 (Q00610 whole entry): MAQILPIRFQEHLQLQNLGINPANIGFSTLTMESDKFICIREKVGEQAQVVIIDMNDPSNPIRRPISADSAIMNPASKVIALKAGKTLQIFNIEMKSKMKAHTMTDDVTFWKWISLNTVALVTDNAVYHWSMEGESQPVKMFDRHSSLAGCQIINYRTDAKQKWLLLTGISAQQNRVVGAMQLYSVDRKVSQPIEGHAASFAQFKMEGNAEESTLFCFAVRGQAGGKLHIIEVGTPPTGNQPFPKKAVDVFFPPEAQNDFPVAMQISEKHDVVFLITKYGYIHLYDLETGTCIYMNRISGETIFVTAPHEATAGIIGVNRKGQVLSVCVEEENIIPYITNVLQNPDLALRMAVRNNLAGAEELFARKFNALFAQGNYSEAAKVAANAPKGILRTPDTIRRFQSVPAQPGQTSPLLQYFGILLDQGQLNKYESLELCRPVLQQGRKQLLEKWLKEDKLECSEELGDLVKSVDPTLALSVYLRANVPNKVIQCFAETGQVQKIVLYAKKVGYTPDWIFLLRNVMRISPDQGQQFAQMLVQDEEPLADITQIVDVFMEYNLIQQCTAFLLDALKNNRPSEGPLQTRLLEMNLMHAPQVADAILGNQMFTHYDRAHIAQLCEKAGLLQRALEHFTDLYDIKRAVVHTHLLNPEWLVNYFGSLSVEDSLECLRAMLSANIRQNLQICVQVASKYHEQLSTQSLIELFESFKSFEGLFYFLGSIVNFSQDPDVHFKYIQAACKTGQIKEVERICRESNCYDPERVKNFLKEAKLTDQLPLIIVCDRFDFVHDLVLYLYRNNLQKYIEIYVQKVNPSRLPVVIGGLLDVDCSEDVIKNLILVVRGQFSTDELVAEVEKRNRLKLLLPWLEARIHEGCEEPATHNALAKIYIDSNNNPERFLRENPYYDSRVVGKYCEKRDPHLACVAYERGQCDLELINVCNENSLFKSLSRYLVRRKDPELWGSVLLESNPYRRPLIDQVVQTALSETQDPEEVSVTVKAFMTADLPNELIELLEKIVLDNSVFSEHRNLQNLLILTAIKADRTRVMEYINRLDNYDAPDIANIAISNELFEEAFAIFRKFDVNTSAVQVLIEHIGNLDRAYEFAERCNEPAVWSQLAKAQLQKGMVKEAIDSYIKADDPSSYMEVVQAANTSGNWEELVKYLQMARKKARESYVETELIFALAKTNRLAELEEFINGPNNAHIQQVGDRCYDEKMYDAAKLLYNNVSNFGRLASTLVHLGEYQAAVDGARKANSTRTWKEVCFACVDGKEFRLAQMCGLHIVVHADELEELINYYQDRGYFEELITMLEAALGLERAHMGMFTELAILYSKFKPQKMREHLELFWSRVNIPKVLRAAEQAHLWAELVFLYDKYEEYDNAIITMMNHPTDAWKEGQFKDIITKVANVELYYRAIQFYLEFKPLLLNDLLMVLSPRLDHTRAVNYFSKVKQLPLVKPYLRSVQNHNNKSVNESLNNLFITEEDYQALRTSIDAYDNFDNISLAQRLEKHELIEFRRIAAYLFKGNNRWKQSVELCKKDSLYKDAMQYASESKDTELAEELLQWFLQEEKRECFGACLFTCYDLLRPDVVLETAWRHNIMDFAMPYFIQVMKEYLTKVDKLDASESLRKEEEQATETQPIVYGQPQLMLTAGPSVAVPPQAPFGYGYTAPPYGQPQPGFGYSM

Sequence of profilin 1 (P07737 whole entry): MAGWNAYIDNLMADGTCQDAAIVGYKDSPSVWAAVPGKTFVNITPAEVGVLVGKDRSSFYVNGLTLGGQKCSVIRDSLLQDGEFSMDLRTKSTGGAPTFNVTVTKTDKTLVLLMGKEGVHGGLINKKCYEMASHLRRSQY

The substance “profilin 1 (from UniProt P07737 1-140) (natural protein)” displayed a more profilin 1 co-precipitated with clathrin from AMS-36-treated than from DMSO-treated cells of 44%.
